Assay results as given in US9969998B2, “Compositions of adenosine deaminase-2 (ADA2), variants thereof and methods of using same” (Halozyme, Inc., priority 2014, dated 2018).
Where a chain is given by its changes, count along the chain named. In names and notes the source's numbering stands.

B1: K375D: ADA2 variant SEQ ID NO:23 (protein)
chain: IDETRAHLLLKEKMMRLGGRLVLNTKEELANERLMTLKIAEMKEAMRTLIFPPSMHFFQAKHLIERSQVFNILRMMPKGAALHLHDIGIVTMDWLVRNVTYRPHCHICFTPRGIMQFRFAHPTPRPSEKCSKWILLEDYRKRVQNVTEFDDSLLRNFTLVTQHPEVIYTNQNVVWSKFETIFFTISGLIHYAPVFRDYVFRSMQEFYEDNVLYMEIRARLLPVYELSGEHHDEEWSVKTYQEVAQKFVETHPEFIGIKIIYSDHRSKDVAVIAESIRMAMGLRIKFPTVVAGFDLVGHEDTGHSLHDYKEALMIPAKDGVKLPYFFHAGETDWQGTSIDRNILDALMLNTTRIGHGFALSKHPAVRTYSWKDDIPIEVCPISNQVLKLVSDLRNHPVATLMATGHPMVISSDDPAMFGAKGLSYDFYEVFMGIGGMKADLRTLKQLAMNSIKYSTLLESEKNTFMEIWKKRWDKFIADVATK
modifications: human ADA2 K372D, mature numbering
B2: K14E: ADA2 variant SEQ ID NO:15 (protein)
chain: B1 chain with K11E, D372K
modifications: human ADA2 K11E, mature numbering
B3: K14A/R23A/K374A: ADA2 variant SEQ ID NO:56 (protein)
chain: B1 chain with K11A, R20A, K371A, D372K
modifications: human ADA2 K11A/R20A/K371A, mature numbering
B4: K375A: ADA2 variant SEQ ID NO:22 (protein)
chain: B1 chain with D372A
modifications: human ADA2 K372A, mature numbering
B5: K14A/R23A: ADA2 variant SEQ ID NO:55 (protein)
chain: B1 chain with K11A, R20A, D372K
modifications: human ADA2 K11A/R20A, mature numbering
B6: R23A/K374A: ADA2 variant SEQ ID NO:57 (protein)
chain: B1 chain with R20A, K371A, D372K
modifications: human ADA2 R20A/K371A, mature numbering
B7: K14A/K374A: ADA2 variant SEQ ID NO:58 (protein)
chain: B1 chain with K11A, K371A, D372K
modifications: human ADA2 K11A/K371A, mature numbering
B8: K374A: ADA2 variant SEQ ID NO:19 (protein)
chain: B1 chain with K371A, D372K
modifications: human ADA2 K371A, mature numbering
B9: R369A: ADA2 variant SEQ ID NO:31 (protein)
chain: B1 chain with R366A, D372K
modifications: human ADA2 R366A, mature numbering
B10: R369D: ADA2 variant SEQ ID NO:32 (protein)
chain: B1 chain with R366D, D372K
modifications: human ADA2 R366D, mature numbering
B11: K455E: ADA2 variant SEQ ID NO:27 (protein)
chain: B1 chain with D372K, K452E
modifications: human ADA2 K452E, mature numbering
B12: R369E: ADA2 variant SEQ ID NO:33 (protein)
chain: B1 chain with R366E, D372K
modifications: human ADA2 R366E, mature numbering
B13: K375E: ADA2 variant SEQ ID NO:24 (protein)
chain: B1 chain with D372E
modifications: human ADA2 K372E, mature numbering

Assays:
[1] = Heparin-affinity chromatography (heparin-Sepharose, SDS-PAGE); format: binding; settings: for Heparin Column Binding: compared to WT rHuADA2, 0.3 mg/mL protein
Procedure: To assess binding of variants to heparin, heparin-affinity chromatography was employed to identify heparin-bound variants. Heparin binding was tested by mixing 35 μL of rHuADA2 WT and variants with 20 μL heparin-Sepharose™ resin (GE Healthcare, Pittsburgh, Pa.; Cat. No. 17-0998-01), followed by incubating at room temperature for 30 min. The mixture was then centrifuged through a 0.22 μm centrifuge filter and the flow-through, containing the unbound protein, was collected for analysis on an SDS-PAGE gel. 35 μL of 1.5 M NaCl was added to heparin-Sepharose resin and incubated at room temperature (RT) for 10 min to elute the remaining heparin-bound protein from the heparin-Sepharose. Samples of purified WT rHuADA2 and tested variants, before and after mixing with the heparin-Sepharose resin, were analyzed by SDS-PAGE to compare the degree of heparin binding.

[2] = Heparin binding ELISA (heparin coated microtiter plate); settings: 3 μM protein
Procedure: A 96-well plate was coated with 100 μL of 200 μg/mL heparin sodium salt (Calibochem, EMD Milipore, Billerica, Mass.; Cat. No. 375095) in Na2CO3 buffer (pH 9.6), overnight at 4° C. The wells were blocked with 5% milk in PBS, and washed 6 times with PBS. 3 μM of select rHuADA2 variants (see Table 20), WT rHuADA2 (positive control) and WT rHuADA1 (negative control) were added to the wells individually and incubated for 2 hours at room temperature, followed by washing 6 times with PBS. 100 μL of 1:1000 diluted horseradish peroxidase (HRP)-anti-FLAG antibody (Abcam, Cambridge, UK; Cat. No. Ab1238) was added to the wells to detect binding and incubated at room temperature for 1 hour. The ELISA reactions were developed by adding the 3,3′,5,5′-Tetramethylbenzidine (TMB) substrate solution (Pierce, Thermo Fisher Scientific, Rockford, Ill.) according the manufacturer's instructions and reading the optical density at 450 nm (OD450) on a plate reader.

[3] = Adenosine deaminase (ADA) enzymatic activity assay kit; format: biochemical; settings: for adenosine deaminase activity mU/mL / ΔA/min, adenosine deaminase activity: protein diluted to 5 μg/mL, serially diluted 2 fold (Table 21); for % activity vs. WT: relative to rHuADA2 WT (Table 21)

Row | Molecule | heparin binding compared to WT [1] | Heparin Column Binding [1] | Average OD450, heparin binding ELISA ([2]; Set 1) | enzymatic activity relative to WT rHuADA2 [3] | adenosine deaminase activity mU/mL [3] | ΔA/min, adenosine deaminase activity [3] | % activity vs. WT [3] | Average OD450, heparin binding ELISA ([2]; Set 2)
1 | B1 | attenuated heparin binding | Reduced | 0.2 | improved enzymatic activity | 123.5 mU/mL | 53.7 | 158.3% | 
2 | B2 | not attenuated |  |  | improved enzymatic activity | 89.1 mU/mL | 38.8 | 114.2% | 
3 | B3 |  | Reduced |  |  | 72.8 mU/mL | 31.7 | 93.3% | 
4 | B4 |  | Reduced |  |  | 81.8 mU/mL | 35.5 | 104.8% | 
5 | B5 |  | Reduced |  |  | 96.9 mU/mL | 42.1 | 124.2% | 
6 | B6 |  | Reduced |  |  | 117.6 mU/mL | 51.1 | 150.7% | 0.17
7 | B7 |  | Reduced |  |  | 78.4 mU/mL | 34.1 | 100.5% | 
8 | B8 |  | Reduced |  |  | 59.2 mU/mL | 25.8 | 75.9% | 
9 | B9 | reduced heparin binding | Reduced |  | reduced adenosine deaminase activity | 34.3 mU/mL | 14.9 | 44% | 
10 | B10 |  | Reduced |  |  | 80.2 mU/mL | 34.9 | 102.8% | 
11 | B11 | attenuated heparin binding | Reduced |  | improved enzymatic activity | 127.3 mU/mL | 55.4 | 163.2% | 0.26
12 | B12 | attenuated heparin binding | Reduced |  | improved enzymatic activity | 115.9 mU/mL | 50.4 | 148.5% | 0.18
13 | B13 | attenuated heparin binding | Reduced | 0.21 | improved enzymatic activity | 108.1 mU/mL | 47 | 138.6% | 
